In assay [1] the target is His-tagged OsTFIIAγ1, labelled with NT-647 (rice (Oryza sativa)). The experiment in a line: MST; […]; 50 mM Tris-HCl pH 7.8, 150 mM NaCl, 10 mM MgCl2, 0.05% Tween-20; 25°C; […].
For assay [2], the target named is His-tagged Xa5 (OsTFIIAγ5), labelled with NT-647 (rice (Oryza sativa)) (UniProt A2XZI2). The assay is described as above.

This note sets out measurements from publication PMC6638009.

In general, Kd refers to a measure of binding affinity in units of concentration.

In assay [1], “His-tagged AvrXa27 (from UniProt A0A0K0GNW2 1-1136) (natural protein)” displayed a Kd of less than 1 µM.

His-tagged AvrXa7 (natural protein): the dissociation constant Kd in assay [2] and in assay [1] was less than 1 µM in each case. In assay [1], “His-tagged PthXo1 (from UniProt B2SU53 1-1373) (natural protein)” had a Kd of less than 1 µM.
